From paper PMC10662374, “Structures of the interleukin 11 signalling complex reveal gp130 dynamics and the inhibitory mechanism of a cytokine variant” (Nature Communications, 2023)
Where a chain is given by its changes, count along the chain named. In names and notes the source's numbering stands. Several values for one entry are separate records, joined by “and”; a condition that tells them apart may be missing. Equal entries are not always repeated. Where two headings read alike, the source gives them in different places.

Tests used:
[1] = target: T1, IL-11Δ10/IL-11Rα_(D1-D3) binary complex (human, UniProt P20809 32-199; Q14626 23-319); test: ITC; gp130 in the syringe titrated against the cytokine/IL-11Rα_(D1-D3) complex formed in the cell, 288 K, TBS pH 8.5, 1:1 interaction model, n = 3
T1 construct: IL-11, human, IL-11Δ10, as m1; numbers count on: the mature protein; IL-11Rα, human, D1-D3, as m8; m1 with m8; also called IL-11Rα_(D1-D3)/IL-11Δ10 binary complex; binary IL-11/IL-11Rα complex; source: formed from the purified proteins (IL-11Δ10 from E. coli, IL-11Rα_(D1-D3) from Sf21); in ITC by titrating the cytokine into IL-11Rα; not shown: His6, N-terminal, cleaved; His8, N-terminal, cleaved; …
T1 sequence 1: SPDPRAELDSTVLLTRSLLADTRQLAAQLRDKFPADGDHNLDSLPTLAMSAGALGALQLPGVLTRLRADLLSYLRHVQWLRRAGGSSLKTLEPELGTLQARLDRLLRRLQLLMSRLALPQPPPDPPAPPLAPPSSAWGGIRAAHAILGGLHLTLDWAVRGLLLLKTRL
T1 sequence 2: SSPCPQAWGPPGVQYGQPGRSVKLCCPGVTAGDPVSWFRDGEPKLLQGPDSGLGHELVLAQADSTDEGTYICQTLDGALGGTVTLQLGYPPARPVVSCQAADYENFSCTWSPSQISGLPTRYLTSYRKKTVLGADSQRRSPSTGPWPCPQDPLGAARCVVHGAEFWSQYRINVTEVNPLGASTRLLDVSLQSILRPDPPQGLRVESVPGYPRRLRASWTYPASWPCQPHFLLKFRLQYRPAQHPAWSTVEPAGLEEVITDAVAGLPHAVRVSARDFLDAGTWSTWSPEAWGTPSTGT

[2] = target: IL-11_(Δ10/W147A)/IL-11Rα_(D1-D3) binary complex (human) (UniProt P20809); test: as above
[3] = target: IL-11_(Δ10/PAIDY)/IL-11Rα_(D1-D3) binary complex (human) (UniProt P20809); test: as above
IL-11Ralpha D1-D3 = target: T2, IL-11Ralpha D1-D3 (Homo sapiens, UniProt Q14626); test: ITC
T2 chain: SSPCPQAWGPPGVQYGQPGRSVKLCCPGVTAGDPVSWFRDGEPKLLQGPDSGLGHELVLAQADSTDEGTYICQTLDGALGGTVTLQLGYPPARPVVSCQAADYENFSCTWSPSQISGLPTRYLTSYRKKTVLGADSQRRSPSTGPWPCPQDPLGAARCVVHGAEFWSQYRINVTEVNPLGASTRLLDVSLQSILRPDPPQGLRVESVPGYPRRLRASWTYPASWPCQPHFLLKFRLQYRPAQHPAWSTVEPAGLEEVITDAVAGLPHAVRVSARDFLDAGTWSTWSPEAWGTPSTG

IL-11Rα_(D1-D3) [4] = target: T3, IL-11Rα_(D1-D3) (human, UniProt Q14626 23-319, N-linked glycans (N105, N172 seen in the structures)); test: ITC; cytokine in the syringe (10-fold above IL-11Rα), IL-11Rα_(D1-D3) in the cell at 10 μM, TBS pH 8.5, 1:1 interaction model, n = 3; settings: both partners purified
T3 construct: Secreted with a honeybee-melittin signal peptide; also called C-terminally truncated form of IL-11Rα; not shown: His8, N-terminal, cleaved
T3 sequence: T1 sequence 2

IL-11Rα_(D1-D3) [5] = target: T3, IL-11Rα_(D1-D3); test: cell-based or functional assay
[6] = target: T4, IL-11RαD1-D3 (C-terminally truncated form of human IL-11Rα, structured extracellular domains D1-D3) (human, UniProt Q14626 23-319); test: SPR; Biacore T200; biotinylated IL-11-avi constructs immobilised on a streptavidin chip; IL-11RαD1-D3 injected, two-fold dilutions from 500 nM; 25 °C (298 K); TBS pH 8.5 + 0.05% Tween; 30 μL/min; 1:1 kinetic model; n = 2; settings: both partners purified
T4 construct: interleukin 11 receptor subunit alpha, human, domains D1-D3 (C-terminally truncated extracellular region); Expressed with a honeybee-melittin signal peptide; not shown: His8, N-terminal, cleaved
T4 sequence: T1 sequence 2

[7] = target: the molecule itself; test: cell-based or functional assay
[8] = target: the molecule itself; test: AUC; sedimentation velocity, 50,000 rpm, 20 °C, c(s) model with floating frictional ratio (SEDFIT)
IL-11Rα_(D1-D3) [9] = target: T3, IL-11Rα_(D1-D3); test: SPR; Biacore T200, 25 °C, TBS pH 8.5 + 0.05% Tween, 30 μL/min; biotinylated IL-11-avi on a streptavidin chip, IL-11Rα_(D1-D3) flowed over (two-fold dilutions from 500 nM), 1:1 kinetic model, n = 2; settings: both partners purified
IL-11Rα D1-D3 = target: T5, IL-11Rα D1-D3 (human, UniProt Q14626 23-319); test: SPR; biotinylated IL-11Δ10-avi or IL-11Δ10/Mutein-avi immobilised on a streptavidin chip (SAHC 1500M); IL-11Rα D1-D3 flowed over, nine-point two-fold dilution series from 500 nM; Biacore T200, 25 °C, TBS pH 8.5 + 0.05% Tween, 30 uL/min; 1:1 kinetic model; two replicate dilution series (run 1, run 2); settings: both partners purified
T5 construct: interleukin 11 receptor subunit alpha, human, C-terminally truncated form with the structured extracellular domains D1-D3; Secreted with a honeybee-melittin signal peptide; tag removed with TEV protease; N-glycosylated; also called IL11RA; RA; not shown: His8, N-terminal, cleaved
T5 sequence: T1 sequence 2

Molecule: gp130_(D2-D3) (receptor)
- Kd [1]: 0.38 µM
- dH [1]: 27 kJ/mol
- Kd [2]: 0.13 µM
- Kd [3]: 0.06 µM

B1: IL-11_(Δ10/W147A) (ligand, human)
chain: T1 sequence 1 with W137A
notes: interleukin 11 (IL-11), human, IL-11Δ10 with W147A; numbers count on: the mature protein; also called IL-11 W147A; W147A mutant; not shown: His6, N-terminal, cleaved
- Kd (IL-11Ralpha D1-D3): 0.0104 µM
- Kd (IL-11Rα_(D1-D3) [4]): 0.01 µM

B2: IL-11_(Δ10/Mutein) (ligand, human)
chain: T1 sequence 1 with A48P, M49A, S50I, A51D, G52Y, W137A
notes: interleukin 11 (IL-11), human, IL-11Δ10 with W147A and AB loop residues 58-62 AMSAG changed to PAIDY; numbers count on: the mature protein; Parent construct IL-11Δ10; also called IL-11 Mutein; not shown: His6, N-terminal, cleaved
- IC50 of inhibition of IL-11Δ10 (20 ng/mL) mediated STAT3 activation (pSTAT3, flow cytometry) in Ba/F3 cells stably expressing human gp130 and IL-11Rα; competes with IL-11 for IL-11Rα and gp130 (IL-11Rα_(D1-D3) [5]): 850 nM
- Kd (IL-11Rα_(D1-D3) [4]): 0.038 µM

B3: biotinylated IL-11Δ10-avi (ligand, human)
chain: T1 sequence 1
modifications: biotin on the C-terminal avitag
notes: interleukin 11, human, N-terminally truncated form (Δ10), as Dm1; numbers count on: the mature protein; also called IL11Δ10 - Avitag; source: E. coli BL21(DE3), biotinylated in the cells, purified as IL-11Δ10; not shown: avitag, C-terminal, kept; His6, N-terminal, cleaved
- Kd [6]: 0.078 µM
- kon [6]: 1.4e+06 M⁻¹ s⁻¹

B4: biotinylated IL-11Δ10/Mutein-avi (ligand, human)
chain: T1 sequence 1 with A48P, M49A, S50I, A51D, G52Y, W137A
modifications: biotin on the C-terminal avitag
notes: interleukin 11, human, Δ10 with W147A and 58PAIDY62, as Dm7; numbers count on: the mature protein; also called IL11Δ10/Mutein - Avitag; source: E. coli BL21(DE3), biotinylated in the cells, purified as IL-11Δ10; not shown: avitag, C-terminal, kept; His6, N-terminal, cleaved
- Kd [6]: 0.033 µM
- kon [6]: 1e+06 M⁻¹ s⁻¹

B5: IL-11_(Δ10/W147A)/IL-11Rα_(D1-D3)/gp130_(D1-D3) trimer (complex, human)
chain 1: T1 sequence 1 with W137A
chain 2: T1 sequence 2
chain 3: GELLDPCGYISPESPVVQLHSNFTAVCVLKEKCMDYFHVNANYIVWKTNHFTIPKEQYTIINRTASSVTFTDIASLNIQLTCNILTFGQLEQNVYGITIISGLPPEKPKNLSCIVNEGKKMRCEWDGGRETHLETNFTLKSEWATHKFADCKAKRDTPTSCTVDYSTVYFVNIEVWVEAENALGKVTSDHINFDPVYKVKPNPPHNLSVINSEELSSILKLTWTNPSIKSVIILKYNIQYRTKDASTWSQIPPEDTASTRSSFTVQDLKPFTEYVFRIRCMKEDGKGYWSDWSEEASGITYEDR
- EC50 of STAT3 activation (pSTAT3, flow cytometry) by IL-11_(Δ10/W147A) in Ba/F3 cells stably expressing human gp130 and IL-11Rα [7]: 610 pM

B6: IL-11Δ10/IL-11Rα_(D1-D3)/gp130EC trimer (complex, human)
chain 1: T1 sequence 1
chain 2: T1 sequence 2
chain 3: ELLDPCGYISPESPVVQLHSNFTAVCVLKEKCMDYFHVNANYIVWKTNHFTIPKEQYTIINRTASSVTFTDIASLNIQLTCNILTFGQLEQNVYGITIISGLPPEKPKNLSCIVNEGKKMRCEWDGGRETHLETNFTLKSEWATHKFADCKAKRDTPTSCTVDYSTVYFVNIEVWVEAENALGKVTSDHINFDPVYKVKPNPPHNLSVINSEELSSILKLTWTNPSIKSVIILKYNIQYRTKDASTWSQIPPEDTASTRSSFTVQDLKPFTEYVFRIRCMKEDGKGYWSDWSEEASGITYEDRPSKAPSFWYKIDPSHTQGYRTVQLVWKTLPPFEANGKILDYEVTLTRWKSHLQNYTVNATKLTVNLTNDRYLATLTVRNLVGKSDAAVLTIPACDFQATHPVMDLKAFPKDNMLWVEWTTPRESVKKYILEWCVLSDKAPCITDWQQEDGTVHRTYLRGNLAESKCYLITVTPVYADGPGSPESIKAYLKQAPPSKGPTVRTKKVGKNEAVLEWDQLPVDVQNGFIRNYTIFYRTIIGNETAVNVDSSHTEYTLSSLTSDTLYMVRMAAYTDEGGKDGPEFTFTTPKFAQGEIE
notes: IL-11, human, IL-11Δ10, as m1; numbers count on: the mature protein; IL-11Rα, human, D1-D3, as m8; gp130, human, D1-D6, as m12; Two such trimers associate to the hexamer; also called one half of the gp130EC complex; source: equimolar mix of the purified proteins; not shown: His6, N-terminal, cleaved; His8, N-terminal, cleaved; copies: 1 + 1 + 1
- binding result [8]: binds

B7: gp130EC (receptor, human, UniProt P40189 23-619, looked up)
chain: B6 chain 3
modifications: N-linked glycans (N21, N61, N135 seen in the structures)
notes: Secreted with a honeybee-melittin signal peptide; D5-D6 are not in the deposited model 8DPT; also called complete extracellular domains of gp130; D1-D6 domains of gp130; not shown: His8, N-terminal, cleaved
- dH ([1]; both partners purified): -20 kJ/mol

B8: biotinylated IL-11_(Δ10/Mutein)-avi (ligand, human)
chain: T1 sequence 1 with A48P, M49A, S50I, A51D, G52Y, W137A
modifications: biotin on the C-terminal avitag
notes: interleukin 11 (IL-11), human, IL-11Δ10 with W147A and 58-62 AMSAG changed to PAIDY; numbers count on: the mature protein; source: E. coli BL21(DE3), biotinylated, purified as IL-11Δ10; not shown: His6, N-terminal, cleaved; avitag, C-terminal, kept
- koff (IL-11Rα_(D1-D3) [9]): 0.034 s⁻¹

B9: biotinylated IL-11Δ10-avi (ligand, human)
chain: T1 sequence 1
modifications: biotin on the C-terminal avitag
notes: interleukin 11 (IL-11), human, N-terminally truncated form IL-11Δ10; numbers count on: the mature protein; source: E. coli BL21(DE3), biotinylated, purified as IL-11Δ10; not shown: His6, N-terminal, cleaved; avitag, C-terminal, kept
- koff (IL-11Rα_(D1-D3) [9]): 0.11 s⁻¹

B10: biotinylated IL-11Δ10-avi (ligand, human)
chain: T1 sequence 1
modifications: biotin on the C-terminal avitag
notes: interleukin 11, human, N-terminally truncated form IL-11Δ10; numbers count on: the mature protein; also called IL11d10; not shown: His6, N-terminal, cleaved; avitag, C-terminal, kept
- Kd (IL-11Rα D1-D3): 0.0785 µM and 0.0771 µM and 0.0778 µM
- koff (IL-11Rα D1-D3): 0.0943 s⁻¹ and 0.125 s⁻¹
- kon (IL-11Rα D1-D3): 1.2e+06 M⁻¹ s⁻¹ and 1.61e+06 M⁻¹ s⁻¹ and 1.41e+06 M⁻¹ s⁻¹

B11: biotinylated IL-11Δ10/Mutein-avi (ligand, human)
chain: T1 sequence 1 with A48P, M49A, S50I, A51D, G52Y, W137A
modifications: biotin on the C-terminal avitag
notes: interleukin 11, human, N-terminally truncated form IL-11Δ10 with the Mutein changes; numbers count on: the mature protein; not shown: His6, N-terminal, cleaved; avitag, C-terminal, kept
- Kd (IL-11Rα D1-D3): 0.0358 µM and 0.0308 µM and 0.0333 µM
- koff (IL-11Rα D1-D3): 0.035 s⁻¹ and 0.0335 s⁻¹
- kon (IL-11Rα D1-D3): 937000 M⁻¹ s⁻¹ and 1.14e+06 M⁻¹ s⁻¹ and 1.04e+06 M⁻¹ s⁻¹
